Reference: article doi:10.1101/2024.08.03.606473

Columns and labels:
[1] = biological target: SidF C-trim (residues 1-443) (Aspergillus fumigatus) (UniProt Q4WF55); assay: SAXS
[2] = biological target: SidF C-trim (residues 1-443) (Aspergillus fumigatus) (UniProt Q4WF55); assay: SEC

Question: Which stoichiometry N [1] does the source give for “SidF C-trim (residues 1-443) (from UniProt Q4WF55 1-443) (domain or fragment)” here?
Answer: 2

Question: What about the stoichiometry N [2] of the same substance?
Answer: 4
